# B1: 7XAla-NEMO (aa 1–419), bacterially expressed (natural protein)
# chain: MNRHLWKSQLAEMVQPSGGPAADQDVLGEESPLGKPAMLHLPSEQGAPETLQRALEENQELRDAIRQSNQILRERAEELLHFQASQREEKEFLMAKFQEARKLVERLGLEKLDLKRQKEQALREVEHLKRAQQQMAEDKASVKAQVTSLLGELQESQSRLEAATKEAQALEGRARAASEQARQLESEREALQQQHSVQVDQLRMQGQSVEAALRMERQAASEEKRKLAQLQVAYHQLFQEYDNHIKSSVVGSERKRGMQLEDLKQQLQQAEEALVAKQEVIDKLKEEAEQHKIVMETVPVLKAQADIYKADFQAERQAREKLAEKKELLQEQLEQLQREYSKLKASAQESARIEDMRKRHVEVSQAPLPPAPAYLSSPLALPSQRRSPPEEPPDFCCPKCQYQAPDMDTLQIHVMECIE
# How the values were obtained:
# [1] = target: 45-mer peptide of IKKβ (as used in the CD experiments); test: circular dichroism (spectra and thermal denaturation with and without ligand); 10 µM NEMO protein with or without equimolar IKKβ 45-mer peptide, incubated 1 h at room temperature; 20 mM sodium phosphate, 500 mM NaCl, pH 7.4; spectra at 25 °C, melt 10 to 70 °C at 222 nm; conditions: both partners purified
# [2] = target: FITC-labeled 45-mer peptide derived from the C-terminal region of IKKβ (FITC label (position not given)); test: fluorescence polarisation; fluorescence anisotropy binding assay with the FITC-labeled IKKβ 45-mer peptide and NEMO proteins; conditions not told (refs 13, 23); conditions: both partners purified
binder,measurement,setting,value
B1,increase in Tm with equimolar peptide,[1],3 °C
same,Kd,[2],13 ± 2.9 nM

# — doi:10.1101/2023.05.25.542299, “A Conserved Core Region of the Scaffold NEMO is Essential for Signal-induced Conformational Change and Liquid-liquid Phase Separation” (bioRxiv, 2023)
